Measured values taken from US20050124794A1, “Cell surface tropomyosin as a target of angiogenesis inhibition” (priority 2002, published 2005).
Each block holds one molecule with its values, some of them ahead of it.

Tests used:
[1] = molecular target: T1, chicken gizzard Tpm (Gallus gallus, UniProt P19352); test: Binding to immobilized Tpm in a 96 well plate (biotin-HKa competition or direct binding)
T1 construct: purchased Sigma; host or cells: chicken gizzard (tissue-derived, as the name says)
T1 sequence (P19352 1-284 isoform P19352-2): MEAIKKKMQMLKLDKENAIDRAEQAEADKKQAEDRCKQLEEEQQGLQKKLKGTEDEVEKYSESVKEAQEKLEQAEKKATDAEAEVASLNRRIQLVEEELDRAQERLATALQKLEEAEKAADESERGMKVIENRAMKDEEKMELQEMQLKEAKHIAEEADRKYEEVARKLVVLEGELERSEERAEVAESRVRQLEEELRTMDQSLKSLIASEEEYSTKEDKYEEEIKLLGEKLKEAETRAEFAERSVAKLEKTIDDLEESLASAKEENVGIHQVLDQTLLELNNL
T1 sequence (P04268 1-284 isoform P04268-2 F73S/I172L/T199L/N203E/L204A partner): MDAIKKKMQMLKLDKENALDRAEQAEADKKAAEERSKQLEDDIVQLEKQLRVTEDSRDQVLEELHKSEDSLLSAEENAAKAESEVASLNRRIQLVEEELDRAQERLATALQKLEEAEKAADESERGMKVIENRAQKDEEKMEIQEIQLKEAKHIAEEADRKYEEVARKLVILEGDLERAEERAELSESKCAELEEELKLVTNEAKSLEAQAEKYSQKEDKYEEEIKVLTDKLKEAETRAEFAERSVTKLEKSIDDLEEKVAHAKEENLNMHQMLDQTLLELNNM
Protocol: Plates are coated at room temperature with chicken gizzard Tpm (Sigma) in Tris buffer-saline (TBS) (200 ng/well). After incubation for 2 hours, wells are washed with TBS, then 1% BSA/TBS/Tween-20 is added to each well and incubate at 37° C. for two hours. HKa (Enzyme Laboratories) that had been previously biotinylated with EZ-Link (Pierce) according to the manufacturers instructions, is added to the plate at a concentration of 10 nM together with ZnCl2 (10 μM) and the appropriate concentration of the protein, domain or peptide competitor. The plates are incubated at room temperature and then washed with TBS/Tween-20. Avidin-HRP is added, incubated for 20 minutes at room temperature, washed with TBS/Tween-20 and the chromogenic substrate is added. The reaction is stopped with sulfuric acid and the plate read at 490 nm.
The IC50 for the displacement of biotinylated-HKa for the peptides shown in Table 5 was determined as follows: 10 nM biotin-HKa is added to a 96 well plate previously coated with 200 ng of chicken gizzard Tpm in the presence of 10 μM ZnCl2. Increasing amounts of the peptides are added to the wells. The remaining biotin-HKa bound to Tpm was detected using avidin-HRP and a chromogenic substrate. A Kd was determined by non-linear regression analysis of the empirical data. The effect on the Matrigel Plug assay was determined as follows: Matrigel (0.5 mL) containing 400 ng/ml of bFGF, 50 μg/ml heparin with or without the peptide (300 μM) or saline buffer are injected in the flanks of a mouse. After five days, the plugs are removed and the plugs scanned.
The N-terminus of the pentapeptide HHPHG has been derivatized (capped) in an attempt to increase the pentapeptides' affinity to Tpm by increasing productive molecular contacts (or interactions). […] The IC50 for the displacement of biotinylated-HKa for the capped peptides shown in the table was determined as follows: 10 nM biotin-HKa was added to a 96 well plate previously coated with 200 ng of chicken gizzard Tpm in the presence of 10 μM ZnCl2. Increasing amounts of the peptides were added to the wells. The remaining biotin-HKa bound to Tpm was detected using avidin-HRP and a chromogenic substrate. A Kd was determined by non-linear regression analysis of the empirical data

[2] = molecular target: T1, chicken gizzard Tpm; test: Binding of HKa to purified Tpm immobilized in 96 well microplates; details: for inhibition of binding of HKa to purified immobilized Tpm (in words): 20 nM biotin-HKa, 10 μM Zn2+
Protocol: To measure the binding of HKa to purified Tpm, 96 well microplates were coated with 20 μg/ml of chicken gizzard Tpm (Sigma), or bovine serum albumin (BSA), as a control. Wells were then blocked by incubation with phosphate buffered saline containing 5% nonfat milk, and incubated with increasing concentrations of HKa (0.01-20 nM) for 2 hours. Specifically-bound HKa was quantitated as described for cell binding assays (van Iwaarden et al., supra, and by assessing the ability of a 100-fold molar excess of unlabeled HKa to compete with biotin-HKa for binding.
In selected experiments, the ability of mAb TM-311 and recombinant HKa D5 to inhibit the binding of biotin-HKa to Tpm was assessed. These studies allowed determination of the Kd for binding of HKa D5 to Tpm using the equation: Kd (D5)=IC50/(1+[HKa]/Kd (HKa)) where IC50 is the concentration of HKa D5 that inhibited HKa binding by 50%, and Kd(HKa) is the Kd for binding of HKa to Tpm.

[3] = tested on: HUVEC; test: EC proliferation assay (growth factor-induced); type: cell-based, human; details: bFGF 10 ng/ml; 20 nM HKa, 60 nM HKa domain 5
Protocol: EC proliferation assays. The effect of HKa on ECs in the absence or presence of mAb TM-311 was initially assessed using a proliferation assay, as described in Zhang et al., supra. Relative numbers of cells remaining in each well of a 96 well microplate after incubation for 48 hours in the absence or presence of HKa were determined using the Aqueous® cell proliferation assay (Promega, Madison, Wis.). Results are presented as the percent inhibition of bFGF-induced EC proliferation, which essentially reflects the extent of HKa-induced EC apoptosis. Though bFGF was used as the EC mitogen in most studies of the studies described herein, identical results were obtained using VEGF.

[4] = molecular target: hTm3 (Homo sapiens, UniProt P09493); details: SPR, MacDonald et al. 2001; read-out: Kd of binding to immobilized hTm3; cited from earlier work
hTm3, sequence (P09493 1-284 isoform P09493-3): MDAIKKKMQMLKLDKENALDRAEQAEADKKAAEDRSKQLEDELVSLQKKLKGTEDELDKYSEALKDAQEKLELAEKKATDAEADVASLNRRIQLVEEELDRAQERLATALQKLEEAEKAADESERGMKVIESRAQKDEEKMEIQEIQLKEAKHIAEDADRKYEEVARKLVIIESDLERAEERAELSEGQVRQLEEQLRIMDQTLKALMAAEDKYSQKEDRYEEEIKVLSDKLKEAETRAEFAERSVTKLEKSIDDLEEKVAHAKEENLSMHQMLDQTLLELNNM

[5] = plate coated with 200 ng chicken gizzard Tpm, 10 μM ZnCl2
[6] = competition with 10 nM biotin-HKa

binding to immobilized Tpm / displacement of biotin-HKa (in words) ([1]; 10 nM biotin-HKa, 200 ng chicken gizzard Tpm, 10 μM ZnCl2): binds
Kd [1, 5]: ~2 nM
B1: rabbit HPRG: rabbit Histidine-Proline-Rich Glycoprotein, SEQ ID NO:22 (protein)
chain: LTPTDCKTTKPLAEKALDLINKWRRDGYLFQLLRVADAHLDGAESATVYYLVLDVKETDCSVLSRKHWEDCDPDLTKRPSLDVIGQCKVIATRYSDEYQTLRLNDFNCTTSSVSSALANTKDSPVLFDFIEDTEPFRKSADKALEVYKSESEAYASFRVDRVERVTRVKGGERTNYYVDFSVRNCSRSHFHRHPAFGFCRADLSFDVEASNLENPEDVIISCEVFNFEEHGNISGFRPHLGKTPLGTDGSRDHHHPHKPHKFGCPPPQEGEDFSEGPPLQGGTPPLSPPFRPRCRHRPFGTNETHRFPHHRISVNIIHRPPPHGHHPHGPPPHGHHPHGPPPHGHPPHGPPPRHPPHGPPPHGHPPHGPPPHGHPPHGPPPHGHPPHGPPPHGHPPHGHGFHDHGPCDPPSHKEGPQDLHQHAMGPPPKHPGKRGPGKGHFPFHWRRIGSVYQLPPLQKGEVLPLPEANFPQLLLRNHTHPLKPEIQPFPQVASERCPEEFNGEFAQLSKFFPSTFPK

affinity for immobilized Tpm relative to endostatin (fold higher) [1, 6]: approximately 1,000 fold
Kd [1, 5]: ~2 nM
B2: H/P domain: Histidine-Proline rich domain of HPRG, responsible for anti-angiogenic activity (protein)
chain: SVNIIHRPPPHGHHPHGPPPHGHHPHGPPPHGHPPHGPPPRHPPHGPPPHGHPPHGPPPHGHPPHGPPPHGHPPHGPPPHGHPPHGHGFHDHGPCDPPSHK

inhibition of binding of HKa to purified immobilized Tpm (in words) [2]: blocked binding
inhibition of binding of HKa to purified immobilized Tpm (in words) ([2]; listed as HKa domain 5): inhibits binding
Kd ([2]; from IC50 of competition with biotin-HKa (equation of b366), read-out: estimated Kd of binding to Tpm): ~2.1 nM
affinity for immobilized Tpm relative to endostatin (fold higher) [1, 6]: approximately 1,000 fold
Kd [1, 5]: ~1 nM
B3: HKa D5: Recombinant HKa domain 5, 125 residue D5 domain, SEQ ID NO:26 (protein, listed as Homo sapiens)
chain: VSPPHTSMAPAQDEERDSGKEQGHTRRHDWGHEKQRKHNLGHGHKHERDQGHGHQRGHGLGHGHEQQHGLGHGHKFKLDDDLEHQGGHVLDHGHKHKHGHGHGKHKNKGKKNGKHNGWKTEHLAS
inhibition of bFGF-induced EC proliferation (in words) [3]: inhibition

Kd relative to that reported previously by SPR (fold better) [1]: 50 fold
affinity relative to HKa or HKa-D5 binding (fold lower) [1]: approximately 1,000 fold
Kd ([1]; competition with 10 nM biotin-HKa, 10 μM ZnCl2): ~2000 nM
B4: endostatin: Zn2+-binding, antiangiogenic polypeptide comprised of the NC domain of collagen XVIII (protein, UniProt P39060 1572-1754, looked up)
Endostatin: HSHRDFQPVLHLVALNSPLSGGMRGIRGADFQCFQQARAVGLAGTFRAFLSSRLQDLYSIVRRADRAAVPIVNLKDELLFPSWEALFSGSEGPLKPGARIFSFDGKDVLRHPTWPQKSVWHGSDPNGRRLTESYCETWRTEAPSATGQASSLLGGRLLGQSAASCHHAYIVLCIENSFMTASK
modifications: Endostatin
Kd [4]: ~100000 nM
